Data from paper PMC5405111 (Molecular Cell, 2017).

T1: RRM1 subunit of ribonucleotide reductase (human (endogenous in RKO), UniProt P23921 1-792)
T1 sequence (looked up): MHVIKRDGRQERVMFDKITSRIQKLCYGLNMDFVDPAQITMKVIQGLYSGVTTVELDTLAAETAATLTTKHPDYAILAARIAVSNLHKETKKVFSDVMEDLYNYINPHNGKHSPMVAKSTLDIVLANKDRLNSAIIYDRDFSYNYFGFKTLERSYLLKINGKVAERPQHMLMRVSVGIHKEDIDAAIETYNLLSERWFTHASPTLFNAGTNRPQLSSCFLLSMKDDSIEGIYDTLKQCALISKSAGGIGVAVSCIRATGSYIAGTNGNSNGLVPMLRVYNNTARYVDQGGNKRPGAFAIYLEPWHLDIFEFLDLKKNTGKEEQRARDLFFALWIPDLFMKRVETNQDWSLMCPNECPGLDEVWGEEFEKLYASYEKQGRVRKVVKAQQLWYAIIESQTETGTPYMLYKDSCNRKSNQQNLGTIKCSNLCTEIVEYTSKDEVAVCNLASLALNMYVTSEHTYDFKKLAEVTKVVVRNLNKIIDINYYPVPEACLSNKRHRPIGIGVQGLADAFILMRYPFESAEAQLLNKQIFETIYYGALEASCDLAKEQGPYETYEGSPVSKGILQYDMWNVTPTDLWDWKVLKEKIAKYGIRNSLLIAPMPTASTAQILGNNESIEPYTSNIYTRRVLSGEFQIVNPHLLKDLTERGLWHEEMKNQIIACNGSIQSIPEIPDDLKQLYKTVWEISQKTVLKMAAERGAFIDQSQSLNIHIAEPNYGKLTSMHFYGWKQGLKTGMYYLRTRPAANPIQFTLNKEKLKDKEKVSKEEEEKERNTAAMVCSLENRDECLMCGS


Target: T1, RRM1 subunit of ribonucleotide reductase
Experiment: co-IP

Binder | fold decrease of RRM2 bound to RRM1 in <0.1% O2 against normoxia [fold] | fold increase of RRM2B bound to RRM1 in <0.1% O2 against normoxia [fold]
RRM2 subunit of ribonucleotide reductase (natural protein, human (endogenous in RKO), UniProt P31350 1-389, looked up) MLSLRVPLAPITDPQQLQLSPLKGLSLVDKENTPPALSGTRVLASKTARRIFQEPTEPKTKAAAPGVEDEPLLRENPRRFVIFPIEYHDIWQMYKKAEASFWTAEEVDLSKDIQHWESLKPEERYFISHVLAFFAASDGIVNENLVERFSQEVQITEARCFYGFQIAMENIHSEMYSLLIDTYIKDPKEREFLFNAIETMPCVKKKADWALRWIGDKEATYGERVVAFAAVEGIFFSGSFASIFWLKKRGLMPGLTFSNELISRDEGLHCDFACLMFKHLVHKPSEERVREIIINAVRIEQEFLTEALPVKLIGMNCTLMKQYIEFVADRLMLELGFSKVFRVENPFDFMENISLEGKTNFFEKRVGEYQRMGVMSSPTENSFTLDADF | 1.8 | 
RRM2B subunit of ribonucleotide reductase (natural protein, human (endogenous in RKO), UniProt Q7LG56 1-351, looked up) MGDPERPEAAGLDQDERSSSDTNESEIKSNEEPLLRKSSRRFVIFPIQYPDIWKMYKQAQASFWTAEEVDLSKDLPHWNKLKADEKYFISHILAFFAASDGIVNENLVERFSQEVQVPEARCFYGFQILIENVHSEMYSLLIDTYIRDPKKREFLFNAIETMPYVKKKADWALRWIADRKSTFGERVVAFAAVEGVFFSGSFAAIFWLKKRGLMPGLTFSNELISRDEGLHCDFACLMFQYLVNKPSEERVREIIVDAVKIEQEFLTEALPVGLIGMNCILMKQYIEFVADRLLVELGFSKVFQAENPFDFMENISLEGKTNFFEKRVSEYQRFAVMAETTDNVFTLDADF |  | 5.3
